Consider 38 variants from the Human Domainome abundance scans (Beltran et al. 2025).

± gives the uncertainty stated by the source.

B1: POU domain, class 4, transcription factor 3, residues 185 to 256; numbered along this chain, Q15319 (parent)
chain: RELEAFAERFKQRRIKLGVTQADVGAALANLKIPGVGSLSQSTICRFESLTLSHNNMIALKPVLQAWLEEAE

In the data set the parent is B1. Description: abundance fitness (aPCA) (normalised: wild type 0, dead -1); higher = more abundant; growth selection in yeast, the domain comes from the species named. The conditions noted are these: Homo sapiens.
Consider RELEAFAERFKQRRIKLGVTQADVGAALANLKIPGVGSLSQSTICRFESLTLSHNNMIARKPVLQAWLEEAE [L60R], for which the abundance fitness was -0.845 ± 0.25.
The value for RELEAFAERFKQRRIKLGVTQADVGAALANLKIPGVGSLSQSTICRFESLTLSHNNMIAKKPVLQAWLEEAE [L60K] was -0.859 ± 0.3; that for RELEAFAERFKQRRIKLGVTQADVGAALANLKIPGVGSLSQSTICRFESLTLSHNNMIAQKPVLQAWLEEAE [L60Q] was -0.376 ± 0.24.
Then RELEAFAERFKQRRIKLGVTQADVGAALANLKIPGVGSLSQSTICRFESLTLSHNNMIAAKPVLQAWLEEAE [L60A], with -0.289 ± 0.17; and RELEAFAERFKQRRIKLGVTQADVGAALANLKIPGVGSLSQSTICRFESLTLSHNNMIAGKPVLQAWLEEAE [L60G], with -0.638 ± 0.5; and RELEAFAERFKQRRIKLGVTQADVGAALANLKIPGVGSLSQSTICRFESLTLSHNNRIALKPVLQAWLEEAE [M57R], with -0.524 ± 0.089.
Then RELEAFAERFKQRRIKLGVTQADVGAALANLKIPGVGSLSQSTICRFESLTLSHNNQIALKPVLQAWLEEAE [M57Q], with -0.359 ± 0.12.
In the case of RELEAFAERFKQRRIKLGVTQADVGAALANLKIPGVGSLSQSTICRFESLTLSHNNTIALKPVLQAWLEEAE [M57T], the abundance fitness was -0.174 ± 0.096.
RELEAFAERFKQRRIKLGVTQADVGAALANLKIPGVGSLSQSTICRFESLTLSHNNVIALKPVLQAWLEEAE [M57V]: the abundance fitness is -0.259 ± 0.19.
For RELEAFAERFKQRRIKLGVTQADVGAALANLKIPGVGSLSQSTICRFESLTLSHNNSIALKPVLQAWLEEAE [M57S], the abundance fitness is -0.156 ± 0.14.
Turning to RELEAFAERFKQRRIKLGVTQADVGAALANLKIPGVGSLSQSTICRFESLTLSHNNLIALKPVLQAWLEEAE [M57L], the abundance fitness is -0.045 ± 0.42.
The value for RELEAFAERFKQRRIKLGVTQADVGAALANLKIPGVGSLSQSTICRFESLTLSHNNMIALQPVLQAWLEEAE [K61Q] was -0.222 ± 0.11; that for RELEAFAERFKQRRIKLGVTQADVGAALANLKIPGVGSLSQSTICRFESLTLSHNNMIALHPVLQAWLEEAE [K61H] was -0.105 ± 0.062; that for RELEAFAERFKQRRIKLGVTQADVGAALANLKIPGVGSLSQSTICRFESLTLSHNNMIALYPVLQAWLEEAE [K61Y] was -0.038 ± 0.058.
Then RELEAFAERFKQRRIKLGVTQADVGAALANLKIPGVGSLSQSTICRFESLTLSHNNMIALLPVLQAWLEEAE [K61L], with -0.217 ± 0.044; and RELEAFAERFKQRRIKLGVTQADVGAALANLKIPGVGSLSQSTICRFESLTLSHNNMIALFPVLQAWLEEAE [K61F], with -0.36 ± 0.055; and RELEAFAERFKQRRIKLGVTQADVGAALANLKIPGVGSLSQSTICRFESLTLSHNNMIALPPVLQAWLEEAE [K61P], with -1.12 ± 0.18.
Then RELEAFAERFKQRRIKLGVTQADVGAALANLKIPGVGSLSQSTICRFESLTLSHNNMIALNPVLQAWLEEAE [K61N], with -0.658 ± 0.092; and RELEAFAERFKQRRIKLGVTQADVGAALANLKIPGVGSLSQSTICRFESLTLSHNNMIALIPVLQAWLEEAE [K61I], with -0.128 ± 0.069.
On to RELEAFAERFKQRRIKLGVTQADVGAALANLKIPGVGSLSQSTICRFESLTLSHNNMIALTPVLQAWLEEAE [K61T], for which the abundance fitness is -0.061 ± 0.058.
Consider RELEAFAERFKQRRIKLGVTQADVGAALANLKIPGVGSLSQSTICRFESLTLSHNNMIALMPVLQAWLEEAE [K61M], for which the abundance fitness was determined as 0.02 ± 0.1.
RELEAFAERFKQRRIKLGVTQADVGAALANLKIPGVGSLSQSTICRFESLTLSHNNMEALKPVLQAWLEEAE [I58E]: the abundance fitness turned out to be 0.071 ± 0.34.
The value for RELEAFAERFKQRRIKLGVTQADVGAALANLKIPGVGSLSQSTICRFESLTLSHNNMSALKPVLQAWLEEAE [I58S] was -0.034 ± 0.055.
The value for RELEAFAERFKQRRIKLGVTQADVGAALANLKIPGVGSLSQSTICRFESLTLSHNNMDALKPVLQAWLEEAE [I58D] was 0.215 ± 0.45; that for RELEAFAERFKQRRIKLGVTQADVGAALANLKIPGVGSLSQSTICRFESLTLSHNNMFALKPVLQAWLEEAE [I58F] was 0.078 ± 0.14.
Then RELEAFAERFKQRRIKLGVTQADVGAALANLKIPGVGSLSQSTICRFESLTLSHNNMLALKPVLQAWLEEAE [I58L], with 0.094 ± 0.065; and RELEAFAERFKQRRIKLGVTQADVGAALANLKIPGVGSLSQSTICRFESLTLSHNNMTALKPVLQAWLEEAE [I58T], with -0.044 ± 0.072; and RELEAFAERFKQRRIKLGVTQADVGAALANLKIPGVGSLSQSTICRFESLTLSHNNMHALKPVLQAWLEEAE [I58H], with -0.033 ± 0.1.
As to RELEAFAERFKQRRIKLGVTQADVGAALANLKIPGVGSLSQSTICRFESLTLSHNNMMALKPVLQAWLEEAE [I58M], the abundance fitness stood at 0.153 ± 0.12.
As for RELEAFAERFKQRRIKLGVTQADVGAALANLKIPGVGSLSQSTICRFESLTLSHNNMYALKPVLQAWLEEAE [I58Y], the abundance fitness was -0.123 ± 0.082.
With RELEAFAERFKQRRIKLGVTQADVGAALANLKIPGVGSLSQSTICRFESLTLSHNNMAALKPVLQAWLEEAE [I58A], the abundance fitness is -0.262 ± 0.32.
The value for RELEAFAERFKQRRIKLGVTQADVGAALANLKIPGVGSLSQSTICRFESLTLSHNNMQALKPVLQAWLEEAE [I58Q] was -0.055 ± 0.072.
Then RELEAFAERFKQRRIKLGVTQADVGAALANLKIPGVGSLSQSTICRFESLTLSHNNMKALKPVLQAWLEEAE [I58K], with -0.058 ± 0.12; and RELEAFAERFKQRRIKLGVTQADVGAALANLKIPGVGSLSQSTICRFESLTLSHNNMPALKPVLQAWLEEAE [I58P], with -1.06 ± 0.26.
Then RELEAFAERFKQRRIKLGVTQADVGAALANLKIPGVGSLSQSTICRFESLTLSHNNMNALKPVLQAWLEEAE [I58N], with -0.049 ± 0.05.
As to RELEAFAERFKQRRIKLGVTQADVGAALANLKIPGVGSLSQSTICRFESLTLSHNNMILLKPVLQAWLEEAE [A59L], the abundance fitness was -0.393 ± 0.39.
Consider RELEAFAERFKQRRIKLGVTQADVGAALANLKIPGVGSLSQSTICRFESLTLSHNNMIGLKPVLQAWLEEAE [A59G], for which the abundance fitness is -0.085 ± 0.18.
As for RELEAFAERFKQRRIKLGVTQADVGAALANLKIPGVGSLSQSTICRFESLTLSHNNMISLKPVLQAWLEEAE [A59S], the abundance fitness is -0.514 ± 0.4.
